Experimental data as given in publication PMC9881158, “The DEAD-box protein Dbp6 is an ATPase and RNA annealase interacting with the peptidyl transferase center (PTC) of the ribosome” (Nucleic Acids Research, 2023).
Numbering of substitutions follows the chain as printed.

How the values were obtained:
Dbp6 ΔN [1] = target: T1, Dbp6 ΔN (Saccharomyces cerevisiae, UniProt P53734 1-629, del24-128); test: EMSA; 0.5 uM protein; like WT; EMSA: 1 nM 32P-RNA, RB 1x (composition not in the material), RNasin, 15 min at 30 C, native PAGE in TBE; bridging: 0.8 uM Dbp6, RB 1x, 15 min at 30 C; settings: protein: recombinant; tags: N-terminal His6; chain copies: 2; label: 32P
T1 sequence: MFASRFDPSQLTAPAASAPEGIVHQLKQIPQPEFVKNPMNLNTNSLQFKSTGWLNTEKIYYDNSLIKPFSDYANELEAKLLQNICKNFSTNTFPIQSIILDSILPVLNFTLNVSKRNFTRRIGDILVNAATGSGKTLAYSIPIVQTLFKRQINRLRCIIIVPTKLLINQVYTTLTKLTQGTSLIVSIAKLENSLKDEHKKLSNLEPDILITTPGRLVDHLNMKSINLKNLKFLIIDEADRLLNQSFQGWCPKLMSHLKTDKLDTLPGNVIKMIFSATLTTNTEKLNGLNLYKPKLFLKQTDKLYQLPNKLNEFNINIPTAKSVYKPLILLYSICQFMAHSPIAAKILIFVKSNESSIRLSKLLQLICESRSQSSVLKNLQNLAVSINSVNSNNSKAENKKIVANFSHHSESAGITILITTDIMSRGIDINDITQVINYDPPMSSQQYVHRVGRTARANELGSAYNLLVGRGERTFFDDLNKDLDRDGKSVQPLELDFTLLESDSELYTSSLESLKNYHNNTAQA

Dbp6 M-I [2] = target: T2, Dbp6 M-I (Saccharomyces cerevisiae, UniProt P53734 1-629, K240A); test: EMSA; 0.5 uM protein; stronger than WT; EMSA: 1 nM 32P-RNA, RB 1x (composition not in the material), RNasin, 15 min at 30 C, native PAGE in TBE; bridging: 0.8 uM Dbp6, RB 1x, 15 min at 30 C; settings: protein: recombinant; tags: N-terminal His6; chain copies: 2; label: 32P
T2 sequence: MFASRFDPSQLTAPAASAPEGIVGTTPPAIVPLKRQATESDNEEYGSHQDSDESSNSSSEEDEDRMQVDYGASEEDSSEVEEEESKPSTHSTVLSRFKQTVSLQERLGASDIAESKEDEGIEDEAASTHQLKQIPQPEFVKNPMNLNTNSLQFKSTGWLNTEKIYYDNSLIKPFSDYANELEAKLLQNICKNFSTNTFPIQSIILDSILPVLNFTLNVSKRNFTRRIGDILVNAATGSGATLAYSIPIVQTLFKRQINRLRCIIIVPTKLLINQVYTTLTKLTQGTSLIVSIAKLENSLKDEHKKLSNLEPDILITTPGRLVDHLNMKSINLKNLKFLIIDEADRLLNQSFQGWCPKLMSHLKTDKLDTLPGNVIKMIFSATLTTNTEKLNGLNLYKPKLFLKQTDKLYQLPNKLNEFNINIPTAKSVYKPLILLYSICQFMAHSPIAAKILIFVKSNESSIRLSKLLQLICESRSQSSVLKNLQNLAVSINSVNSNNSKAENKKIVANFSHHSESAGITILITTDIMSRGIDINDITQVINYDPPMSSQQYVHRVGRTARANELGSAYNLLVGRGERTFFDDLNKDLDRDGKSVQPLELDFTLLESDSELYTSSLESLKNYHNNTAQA

Dbp6 M-II = target: T3, Dbp6 M-II (Saccharomyces cerevisiae, UniProt P53734 1-629, E342A); test: EMSA; 0.25 uM protein; stronger than WT; EMSA: 1 nM 32P-RNA, RB 1x (composition not in the material), RNasin, 15 min at 30 C, native PAGE in TBE; bridging: 0.8 uM Dbp6, RB 1x, 15 min at 30 C; settings: protein: recombinant, tags: N-terminal His6, chain copies: 2
T3 sequence: T2 sequence with A240K, E342A

Dbp6 ΔN [3] = target: T1, Dbp6 ΔN; test: EMSA; 0.25 uM protein; like WT; EMSA: 1 nM 32P-RNA, RB 1x (composition not in the material), RNasin, 15 min at 30 C, native PAGE in TBE; bridging: 0.8 uM Dbp6, RB 1x, 15 min at 30 C; settings: protein: recombinant; tags: N-terminal His6; chain copies: 2; label: 32P on ss38-mer; 3' overhang 20 nt on strand 1; 38 bp region with one C-C mismatch
Dbp6 M-I [4] = target: T2, Dbp6 M-I; test: EMSA; 0.25 uM protein; not increased over WT; EMSA: 1 nM 32P-RNA, RB 1x (composition not in the material), RNasin, 15 min at 30 C, native PAGE in TBE; bridging: 0.8 uM Dbp6, RB 1x, 15 min at 30 C; settings: protein: recombinant; tags: N-terminal His6; chain copies: 2; label: 32P on ss38-mer; 3' overhang 20 nt on strand 1; 38 bp region with one C-C mismatch

Measured: binding result

CAGAACCGCUACACUGAAAUGAUCAAUUCCGGUCUCCC (ssRNA) [ss38-mer]
binds: Dbp6 ΔN [1] | Dbp6 M-I [2] | Dbp6 M-II; label: 32P

B1: ds38/58 hemi-duplex (dsRNA)
RNA 1: GGGAGACCGGAAUUCAUCAUUUCAGUGUAGCGGUUCUGACGUGCAAAUCGAUCGUCGA
RNA 2: CAGAACCGCUACACUGAAAUGAUCAAUUCCGGUCUCCC
binds: Dbp6 ΔN [3] | Dbp6 M-II; label: 32P on ss38-mer, 3' overhang 20 nt on strand 1, 38 bp region with one C-C mismatch | Dbp6 M-I [4]
